Experimental data from patent US8012929B2, “Peptides directed for diagnosis and treatment of amyloid-associated diseases” (Tel Aviv University Future Technology Development L.P., priority 2002, dated 2011).
Square brackets hold non-standard residues; d marks the D form. Ends that are not written are not given here. Aib = CC(C)(N)C(=O)O

Key:
[1] = biological target: T1, full-length IAPP polypeptide (Homo sapiens, UniProt P10997); assay: ThT fluorescence assay of IAPP fibril formation with inhibitory peptides (Tris buffer); assay type: biochemical; settings: for inhibition of IAPP aggregation (ThT endpoint): 4 μM IAPP, 40 μM inhibitory peptide, 142 hours of incubation
T1 construct: purchased CalBiochem (La Jolla Calif., USA)
T1 sequence (P10997 34-70 limits assumed): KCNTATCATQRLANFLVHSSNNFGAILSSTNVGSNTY
Procedure: The ability of amyloidogenic peptides of IAPP, identified according to the teachings of the present invention to inhibit amyloid formation by the full-length polypeptide was tested by the addition of beta-breaker proline residues to the recognition sequence as set forth in the peptide sequence NFLVHPP (SEQ ID NO: 45). The degree of amyloid fibrils formation with and without the inhibitor was assessed using Thioflavin T (ThT) as molecular indicator. The degree of fluorescence of the ThT dye is directly correlated with the amount of amyloid fibrils in the solution [LeVine H 3rd. (1993) Protein Sci. 2:404-410. IAPP solutions ([…] hIAPPin 10 mM Tris buffer pH 7.2), were incubated in the presence or absence of 40[…] of the modified peptide (i.e., NFLVHPP) at room temperature. Fibril formation was determined by a ten fold dilution of the solutions into a solution that contained 3[…] thioflavin T (ThT) in 50 mM sodium phosphate pH 6.0 and determination of fluorescence at 480 nm with excitation at 450 nm using a LS50B spectroflurimeter (Perkin Elmar, Wellesley, Mass.). As a control 10 mM Tris buffer pH 7.2 were diluted into the ThT solution and fluorescence was determined as described.
The degree of amyloid fibril formation with and without the Aib inhibitor was assessed using thioflavin T (ThT) as molecular indicator. The degree of fluorescence of the ThT dye is directly correlated with the amount of amyloid fibrils in the solution [LeVine H 3rd. (1993) Protein Sci. 2:404-410].
[…]IAPP solutions (4 μM peptide in 10 mM Tris buffer pH 7.2), were incubated with or without 40 μM of the various peptide solutions at room temperature. Fibril formation was assessed by a ten fold diluation of the solutions into a solution which contained 3 μM thioflavin T (ThT) in 50 mM sodium phosphate pH 6.0 and determination of fluorescence at 480 nm with excitation at 450 nm using a Perkin Elmar LS50B spectroflurimeter. As a control a 10 mM Tris buffer pH 7.2 was diluted into the ThT solution and fluorescence was determined as described. […]

hIAPP1-37 = biological target: T2, hIAPP1-37 (Homo sapiens, UniProt P10997); assay: Thioflavin T fluorescence assay of hIAPP fibrillization (sodium acetate buffer); assay type: biochemical; settings: 4 μM hIAPP1-37, 40 μM inhibitor, 10 mM sodium acetate pH 6.5
T2 construct: purchased CalBiochem (La Jolla Calif., USA)
T2 sequence (P10997 34-70 limits assumed): T1 sequence (P10997 34-70 limits assumed)
Procedure: Thioflavin T fluorescence assay—hIAPP fibrillization was monitored by Thioflavin T dye binding assay. hIAPP1-37 stock solution was diluted to a final concentration of 4 μM in 10 mM sodium acetate buffer (pH 6.5) with or without inhibitors (40 μM), and a final concentration of HFIP of 1% (vol). Immediately after dilution, sample was centrifuged for 20 minutes in 20,000×g at 4° C. and the supernatant fraction was used for fluorescence measurements. In every measurement ThT was added to a 1 ml sample at a final concentration of 3 μM and measurements were effected by using Perkin-Elmer (excitation 450 nm, 2.5 nm slit; emission 480 nm 10 nm slit). Background was subtracted from all samples.

| Substance | inhibition of IAPP aggregation (ThT endpoint) [1] | ThT fluorescence of IAPP in the presence of the inhibitory peptide ([1]; hIAPP in 10 mM Tris pH 7.2 with or without modified peptide, room temperature) | inhibition of IAPP fibrillization (ThT fluorescence at plateau) (hIAPP1-37) |
| --- | --- | --- | --- |
| Aib-Phe-Phe ([Aib]-Phe-Phe) [EG12] | best inhibitor |  |  |
| NFLVHPP |  | significant increase in fluorescence |  |
| D-Tyr-Aib [EG16] | significant inhibitory effect on IAPP aggregation |  | effective inhibition |
